Experimental data: patent US20110250613A1, “Arrayed Multiple Ubiquitin Binding Domains as Linkage-specific Polyubiquitin Affinity Reagents” (THE JOHNS HOPKINS UNIVERSITY, priority 2009, published 2011)
pKd, pKi: −log10 of the molar value. Values belong to the substance of their own block, whether it stands above or below them.

Tests used:
[1] = target: K48-linked tetraubiquitin (UniProt P0CG48); assay: fluorescence anisotropy
K48-linked diubiquitin [2] = target: K48-linked diubiquitin (UniProt P0CG48); assay: fluorescence anisotropy
K63-linked diubiquitin [3] = target: K63-linked diubiquitin (UniProt P0CG48); assay: fluorescence anisotropy
[4] = target: K63-linked tetraubiquitin (UniProt P0CG48); assay: fluorescence anisotropy
[5] = target: K48-linked tetraubiquitin (UniProt P0CG48); assay: fluorescence anisotropy, ratio of Kd
[6] = target: K48-linked tetraubiquitin (UniProt P0CG48); assay: fluorescence anisotropy; remark: listed apart in the source
[7] = target: K63-linked tetraubiquitin (UniProt P0CG48); assay: fluorescence anisotropy; remark: listed apart in the source
[8] = target: K48-linked tetraubiquitin (UniProt P0CG48); assay: fluorescence anisotropy, against K63-Ub4
K48-linked diubiquitin [9] = target: K48-linked diubiquitin (UniProt P0CG48); assay: fluorescence anisotropy, against K63-Ub2
K48-linked diubiquitin [10] = target: K48-linked diubiquitin (UniProt P0CG48); assay: fluorescence anisotropy; remark: listed apart in the source
K63-linked diubiquitin [11] = target: K63-linked diubiquitin (UniProt P0CG48); assay: fluorescence anisotropy; remark: listed apart in the source
K48-linked diubiquitin [12] = target: K48-linked diubiquitin (UniProt P0CG48); assay: SPR, GST-UBA captured on anti-GST antibody
K63-linked diubiquitin [13] = target: K63-linked diubiquitin (UniProt P0CG48); assay: SPR, GST-UBA captured on anti-GST antibody
[14] = target: K48-linked tetraubiquitin (UniProt P0CG48); assay: SPR, GST-UBA captured on anti-GST antibody
[15] = target: K63-linked tetraubiquitin (UniProt P0CG48); assay: SPR, GST-UBA captured on anti-GST antibody
[16] = target: K63-linked tetraubiquitin (UniProt P0CG48); assay: SPR, captured on anti-GST antibody
[17] = target: K63-linked tetraubiquitin (UniProt P0CG48); assay: SPR Kd of GST-UBA1 against fluorescence anisotropy Kd of the free domain
[18] = target: K63-linked tetraubiquitin (UniProt P0CG48); assay: fluorescence anisotropy, solution state
[19] = target: K48-linked tetraubiquitin (UniProt P0CG48); assay: fluorescence anisotropy, ratio of Kd for Ub4 chains
K63-linked diubiquitin [20] = target: K63-linked diubiquitin (UniProt P0CG48); assay: ITC, single-site model; unit mM, evidently µM
K63-linked diubiquitin [21] = target: K63-linked diubiquitin (UniProt P0CG48); assay: ITC, single-site model
K63-linked diubiquitin [22] = target: K63-linked diubiquitin (UniProt P0CG48); assay: fluorescence anisotropy; Rap80 tUIM with 9-alanine linker
K63-linked diubiquitin [23] = target: K63-linked diubiquitin (UniProt P0CG48); assay: fluorescence anisotropy, alanine linker series
K63-linked diubiquitin [24] = target: K63-linked diubiquitin (UniProt P0CG48); assay: fluorescence anisotropy to high K63-Ub2 concentrations, divalent-divalent complex fit, avid mode
K63-linked diubiquitin [25] = target: K63-linked diubiquitin (UniProt P0CG48); assay: fluorescence anisotropy, divalent-divalent complex fit, non-avid mode
[26] = target: K48-linked tetraubiquitin (UniProt P0CG48); assay: fluorescence anisotropy competition with fluorescent Vps27 7aa linker peptide
[27] = target: K63-linked tetraubiquitin (UniProt P0CG48); assay: as above
K63-linked diubiquitin [28] = target: K63-linked diubiquitin (UniProt P0CG48); assay: fluorescence anisotropy competition against the fluorescent Rap80 tUIM peptide at saturating K63-Ub2

Substance: Ataxin3 (wt) tandem UIM peptide
pKd [1]: 5.48
pKd (K48-linked diubiquitin [2]): 4.00
pKd (K63-linked diubiquitin [3]): 4.04
pKd [4]: 4.82
fold preference over K63-Ub4 [5]: 5 fold

Substance: Dsk2 UBA, fluorescein-labelled (from UniProt P48510 327-371)
pKd [6]: 5.85
pKd [7]: 5.66
fold difference in Kd for K63- and K48-Ub4 [5]: < 2 fold

Substance: Ede1_rhodamine (from UniProt P34216 1338-1381)
fold preference for K48-polyUb [8]: < 2 fold
fold preference for K48-polyUb (K48-linked diubiquitin [9]): < 2 fold
pKd [6]: 4.51
pKd (K48-linked diubiquitin [10]): 4.07
pKd (K63-linked diubiquitin [11]): 3.92
pKd [7]: 4.27

Substance: GST-DRM2 UBA1 (from UniProt Q9M548 106-154)
pKd (K48-linked diubiquitin [12]): 3.85
pKd (K63-linked diubiquitin [13]): 4.05

Substance: GST-Ede1 UBA (from UniProt P34216 1336-1381)
pKd [14]: 4.60
pKd (K48-linked diubiquitin [12]): 3.96
pKd (K63-linked diubiquitin [13]): 4.32
pKd [15]: 5.22

Substance: GST-hHR23A UBA1
pKd [14]: 4.89
pKd (K48-linked diubiquitin [12]): 4.44
pKd (K63-linked diubiquitin [13]): 4.59
pKd [15]: 5.33
fold tighter than the free domain [17]: > 6 fold

Substance: Rap80 (1-233), fluorescein-labelled (from UniProt Q96RL1 1-233)
fold preference over K48-Ub4 [18]: 7 fold
pKd [6]: 4.64
pKd [7]: 5.47

Substance: Rap80 UIM2 peptide, fluorescein-labelled
pKd (K48-linked diubiquitin [10]): 3.70

Substance: Rap80 ataxin linker (peptide)
fold K48 preference [19]: 6 fold
pKd [1]: 5.47
pKd (K48-linked diubiquitin [2]): 3.84
pKd (K63-linked diubiquitin [3]): 3.94
pKd [4]: 4.70

Substance: Rap80 tUIM peptide with a C-terminal 3-amino acid extension (DWS)
pKd (K63-linked diubiquitin [20]): 1.75
n (sites) (K63-linked diubiquitin [21]): 0.97 sites

Substance: Rap80 tUIM peptide with no 6xHis-tag and fluorescein on a C-terminal lysine side chain (expressed protein ligation)
pKd (K63-linked diubiquitin [11]): 4.72

Substance: Rap80 tUIM with 9-alanine linker
pKd (K63-linked diubiquitin [22]): 4.04

Substance: Rap80_DLKAAIQ (peptide)
pKd (K48-linked diubiquitin [2]): 3.89
pKd (K63-linked diubiquitin [3]): 5.00

Substance: Rap80_S101A (peptide)
pKd (K48-linked diubiquitin [2]): 3.82
pKd (K63-linked diubiquitin [3]): 4.96

Substance: Rap80_S101E (peptide)
pKd (K48-linked diubiquitin [2]): 3.77
pKd (K63-linked diubiquitin [3]): 4.80

Substance: Ubc1 UBA, His-tagged, Alexa-fluor 546 labelled
pKd [6]: 4.43
pKd [7]: 3.77

Substance: Vps27 (wt) tandem UIM peptide
pKd [26]: 4.51
pKd [27]: 4.54
pKd (K48-linked diubiquitin [2]): 3.68
pKd (K63-linked diubiquitin [3]): 4.17

Substance: unlabeled Rap80 tUIM peptide
pKi (K63-linked diubiquitin [28]): 4.62

Results, then the substance that gave them:

pKd [6]: 4.30
pKd [7]: 4.04
fold difference in Kd for K63- and K48-Ub4 [5]: < 2 fold
Substance: Ddi1 UBA, fluorescein-labelled

pKd (K48-linked diubiquitin [12]): 3.34
Substance: GST-Ubc1 UBA (from UniProt P21734 167-215)

pKd [16]: 4.64
Substance: GST-fmm (functionally monomeric mixture; GST-His/GST-Ede1 heterodimer) (from UniProt P34216 1336-1381)

pKd (K48-linked diubiquitin [10]): 3.55
Substance: Rap80 UIM1 peptide, fluorescein-labelled

fold weaker than 7 A (K63-linked diubiquitin [23]): > 25 fold
Substance: Rap80 tUIM with 9-alanine linker (peptide)

pKd (K63-linked diubiquitin [24]): 4.66
pKd (K63-linked diubiquitin [25]): 3.00
pKd [6]: 4.82
pKd [7]: 5.42
pKd [1]: 4.85
pKd (K63-linked diubiquitin [3]): 4.67
pKd [4]: 5.44
Substance: Rap80 tandem UIMs (wt) peptide, His6-tagged, fluorescein-labelled

pKd (K48-linked diubiquitin [2]): 3.64
pKd (K63-linked diubiquitin [3]): 4.77
Substance: Rap80_ARLEEKV (peptide)

pKd (K63-linked diubiquitin [3]): 4.33
Substance: Rap80_nolinker (peptide)

pKd [1]: 5.11
pKd (K48-linked diubiquitin [2]): 3.80
pKd (K63-linked diubiquitin [3]): 4.22
pKd [4]: 4.96
Substance: ataxin-3 Rap80 linker (peptide)

pKd [6]: 5.05
pKd [7]: 4.52
Substance: fluorescein-labeled hHR23A-UBA1 domain (from UniProt P54725 159-201)
